In US20230407373A1 (priority 2020, published 2023):
Read-outs that look alike come from different tables or passages of the source.

B1: LMNA (protein, UniProt P02545 1-661, looked up)
Prelamin-A/C: METPSQRRATRSGAQASSTPLSPTRITRLQEKEDLQELNDRLAVYIDRVRSLETENAGLRLRITESEEVVSREVSGIKAAYEAELGDARKTLDSVAKERARLQLELSKVREEFKELKARNTKKEGDLIAAQARLKDLEALLNSKEAALSTALSEKRTLEGELHDLRGQVAKLEAALGEAKKQLQDEMLRRVDAENRLQTMKEELDFQKNIYSEELRETKRRHETRLVEIDNGKQREFESRLADALQELRAQHEDQVEQYKKELEKTYSAKLDNARQSAERNSNLVGAAHEELQQSRIRIDSLSAQLSQLQKQLAAKEAKLRDLEDSLARERDTSRRLLAEKEREMAEMRARMQQQLDEYQELLDIKLALDMEIHAYRKLLEGEEERLRLSPSPTSQRSRGRASSHSSQTQGGGSVTKKRKLESTESRSSFSQHARTSGRVAVEEVDEEGKFVRLRNKSNEDQSMGNWQIKRQNGDDPLLTYRFPPKFTLKAGQVVTIWAAGAGATHSPPTDLVWKAQNTWGCGNSLRTALINSTGEEVAMRKLVRSVTVVEDDEDEDGDDLLHHHHGSHCSSSGDPAEYNLRSRTVLCGTCGQPADKASASGSGAQVGGPISSGSSASSVTVTRSYRSVGGSGGGSFGDNLVTRSYLLGNSSPRTQSPQNC
B2: HMGB1 (protein, UniProt P09429 1-215, looked up)
High mobility group protein B1: MGKGDPKKPRGKMSSYAFFVQTCREEHKKKHPDASVNFSEFSKKCSERWKTMSAKEKGKFEDMAKADKARYEREMKTYIPPKGETKKKFKDPNAPKRPPSAFFLFCSEYRPKIKGEHPGLSIGDVAKKLGEMWNNTAADDKQPYEKKAAKLKEKYEKDIAAYRAKGKPDAAKKGVVKAEKSKKKKEEEEDEEDEEDEEEEEDEEDEDEEEDDDDE
B3: HNANPA0 (protein, UniProt Q13151 1-305, looked up)
Heterogeneous nuclear …: MENSQLCKLFIGGLNVQTSESGLRGHFEAFGTLTDCVVVVNPQTKRSRCFGFVTYSNVEEADAAMAASPHAVDGNTVELKRAVSREDSARPGAHAKVKKLFVGGLKGDVAEGDLIEHFSQFGTVEKAEIIADKQSGKKRGFGFVYFQNHDAADKAAVVKFHPIQGHRVEVKKAVPKEDIYSGGGGGGSRSSRGGRGGRGRGGGRDQNGLSKGGGGGYNSYGGYGGGGGGGYNAYGGGGGGSSYGGSDYGNGFGGFGSYSQHQSSYGPMKSGGGGGGGGSSWGGRSNSGPYRGGYGGGGGYGGSSF
B4: KRT14 (protein, UniProt P02533 1-472, looked up)
Keratin, type I cytoskeletal …: MTTCSRQFTSSSSMKGSCGIGGGIGGGSSRISSVLAGGSCRAPSTYGGGLSVSSSRFSSGGACGLGGGYGGGFSSSSSSFGSGFGGGYGGGLGAGLGGGFGGGFAGGDGLLVGSEKVTMQNLNDRLASYLDKVRALEEANADLEVKIRDWYQRQRPAEIKDYSPYFKTIEDLRNKILTATVDNANVLLQIDNARLAADDFRTKYETELNLRMSVEADINGLRRVLDELTLARADLEMQIESLKEELAYLKKNHEEEMNALRGQVGGDVNVEMDAAPGVDLSRILNEMRDQYEKMAEKNRKDAEEWFFTKTEELNREVATNSELVQSGKSEISELRRTMQNLEIELQSQLSMKASLENSLEETKGRYCMQLAQIQEMIGSVEEQLAQLRCEMEQQNQEYKILLDVKTRLEQEIATYRRLLEGEDAHLSSSQFSSGSQSSRDVTSSSRQIRTKVMDVHDGKVVSTHEQVLRTKN
B5: KRT9 (protein, UniProt P35527 1-623, looked up)
Keratin, type I cytoskeletal 9: MSCRQFSSSYLSRSGGGGGGGLGSGGSIRSSYSRFSSSGGGGGGGRFSSSSGYGGGSSRVCGRGGGGSFGYSYGGGSGGGFSASSLGGGFGGGSRGFGGASGGGYSSSGGFGGGFGGGSGGGFGGGYGSGFGGFGGFGGGAGGGDGGILTANEKSTMQELNSRLASYLDKVQALEEANNDLENKIQDWYDKKGPAAIQKNYSPYYNTIDDLKDQIVDLTVGNNKTLLDIDNTRMTLDDFRIKFEMEQNLRQGVDADINGLRQVLDNLTMEKSDLEMQYETLQEELMALKKNHKEEMSQLTGQNSGDVNVEINVAPGKDLTKTLNDMRQEYEQLIAKNRKDIENQYETQITQIEHEVSSSGQEVQSSAKEVTQLRHGVQELEIELQSQLSKKAALEKSLEDTKNRYCGQLQMIQEQISNLEAQITDVRQEIECQNQEYSLLLSIKMRLEKEIETYHNLLEGGQEDFESSGAGKIGLGGRGGSGGSYGRGSRGGSGGSYGGGGSGGGYGGGSGSRGGSGGSYGGGSGSGGGSGGGYGGGSGGGHSGGSGGGHSGGSGGNYGGGSGSGGGSGGGYGGGSGSRGGSGGSHGGGSGFGGESGGSYGGGEEASGSGGGYGGGSGKSSHS
B6: DRX30 (protein, UniProt Q7L2E3 1-1194, looked up)
ATP-dependent RNA helicase …: MFSLDSFRKDRAQHRQRQCKLPPPRLPPMCVNPTPGGTISRASRDLLKEFPQPKNLLNSVIGRALGISHAKDKLVYVHTNGPKKKKVTLHIKWPKSVEVEGYGSKKIDAERQAAAAACQLFKGWGLLGPRNELFDAAKYRVLADRFGSPADSWWRPEPTMPPTSWRQLNPESIRPGGPGGLSRSLGREEEEDEEEELEEGTIDVTDFLSMTQQDSHAPLRDSRGSSFEMTDDDSAIRALTQFPLPKNLLAKVIQIATSSSTAKNLMQFHTVGTKTKLSTLTLLWPCPMTFVAKGRRKAEAENKAAALACKKLKSLGLVDRNNEPLTHAMYNLASLRELGETQRRPCTIQVPEPILRKIETFLNHYPVESSWIAPELRLQSDDILPLGKDSGPLSDPITGKPYVPLLEAEEVRLSQSLLELWRRRGPVWQEAPQLPVDPHRDTILNAIEQHPVVVISGDTGCGKTTRIPQLLLERYVTEGRGARCNVIITQPRRISAVSVAQRVSHELGPSLRRNVGFQVRLESKPPSRGGALLFCTVGILLRKLQSNPSLEGVSHVIVDEVHERDVNTDFLLILLKGLQRLNPALRLVLMSATGDNERFSRYFGGCPVIKVPGFMYPVKEHYLEDILAKLGKHQYLHRHRHHESEDECALDLDLVTDLVLHIDARGEPGGILCFLPGWQEIKGVQQRLQEALGMHESKYLILPVHSNIPMMDQKAIFQQPPVGVRKIVLATNIAETSITINDIVHVVDSGLHKEERYDLKTKVSCLETVWVSRANVIQRRGRAGRCQSGFAYHLFPRSRLEKMVPFQVPEILRTPLENLVLQAKIHMPEKTAVEFLSKAVDSPNIKAVDEAVILLQEIGVLDQREYLTTLGQRLAHISTDPRLAKAIVLAAIFRCLHPLLVVVSCLTRDPFSSSLQNRAEVDKVKALLSHDSGSDHLAFVRAVAGWEEVLRWQDRSSRENYLEENLLYAPSLRFIHGLIKQFSENIYEAFLVGKPSDCTLASAQCNEYSEEEELVKGVLMAGLYPNLIQVRQGKVTRQGKFKPNSVTYRTKSGNILLHKSTINREATRLRSRWLTYFMAVKSNGSVFVRDSSQVHPLAVLLLTDGDVHIRDDGRRATISLSDSDLLRLEGDSRTVRLLKELRRALGRMVERSLRSELAALPPSVQEEHGQLLALLAELLRGPCGSFDVRKTADD
B7: KRT1 (protein, UniProt P04264 2-644, looked up)
Keratin, type II cytoskeletal …: SRQFSSRSGYRSGGGFSSGSAGIINYQRRTTSSSTRRSGGGGGRFSSCGGGGGSFGAGGGFGSRSLVNLGGSKSISISVARGGGRGSGFGGGYGGGGFGGGGFGGGGFGGGGIGGGGFGGFGSGGGGFGGGGFGGGGYGGGYGPVCPPGGIQEVTINQSLLQPLNVEIDPEIQKVKSREREQIKSLNNQFASFIDKVRFLEQQNQVLQTKWELLQQVDTSTRTHNLEPYFESFINNLRRRVDQLKSDQSRLDSELKNMQDMVEDYRNKYEDEINKRTNAENEFVTIKKDVDGAYMTKVDLQAKLDNLQQEIDFLTALYQAELSQMQTQISETNVILSMDNNRSLDLDSIIAEVKAQYEDIAQKSKAEAESLYQSKYEELQITAGRHGDSVRNSKIEISELNRVIQRLRSEIDNVKKQISNLQQSISDAEQRGENALKDAKNKLNDLEDALQQAKEDLARLLRDYQELMNTKLALDLEIATYRTLLEGEESRMSGECAPNVSVSVSTSHTTISGGGSRGGGGGGYGSGGSSYGSGGGSYGSGGGGGGGRGSYGSGGSSYGSGGGSYGSGGGGGGHGSYGSGSSSGGYRGGSGGGGGGSSGGRGSGGGSSGGSIGGRGSSSGGVKSSGGSSSVKFVSTTYSGVTR
B8: HNANPA3 (protein, UniProt P51991 1-378, looked up)
Heterogeneous nuclear …: MEVKPPPGRPQPDSGRRRRRRGEEGHDPKEPEQLRKLFIGGLSFETTDDSLREHFEKWGTLTDCVVMRDPQTKRSRGFGFVTYSCVEEVDAAMCARPHKVDGRVVEPKRAVSREDSVKPGAHLTVKKIFVGGIKEDTEEYNLRDYFEKYGKIETIEVMEDRQSGKKRGFAFVTFDDHDTVDKIVVQKYHTINGHNCEVKKALSKQEMQSAGSQRGRGGGSGNFMGRGGNFGGGGGNFGRGGNFGGRGGYGGGGGGSRGSYGGGDGGYNGFGGDGGNYGGGPGYSSRGGYGGGGPGYGNQGGGYGGGGGYDGYNEGGNFGGGNYGGGGNYNDFGNYSGQQQSNYGPMKGGSFGGRSSGSPYGGGYGSGGGSGGYGSRRF
B9: MTDH (protein, UniProt Q86UE4 1-582, looked up)
Protein LYRIC: MAARSWQDELAQQAEEGSARLREMLSVGLGFLRTELGLDLGLEPKRYPGWVILVGTGALGLLLLFLLGYGWAAACAGARKKRRSPPRKREEAAAVPAAAPDDLALLKNLRSEEQKKKNRKKLSEKPKPNGRTVEVAEGEAVRTPQSVTAKQPPEIDKKNEKSKKNKKKSKSDAKAVQNSSRHDGKEVDEGAWETKISHREKRQQRKRDKVLTDSGSLDSTIPGIENTITVTTEQLTTASFPVGSKKNKGDSHLNVQVSNFKSGKGDSTLQVSSGLNENLTVNGGGWNEKSVKLSSQISAGEEKWNSVSPASAGKRKTEPSAWSQDTGDANTNGKDWGRSWSDRSIFSGIGSTAEPVSQSTTSDYQWDVSRNQPYIDDEWSGLNGLSSADPNSDWNAPAEEWGNWVDEERASLLKSQEPIPDDQKVSDDDKEKGEGALPTGKSKKKKKKKKKQGEDNSTAQDTEELEKEIREDLPVNTSKTRPKQEKAFSLKTISTSDPAEVLVKNSQPIKTLPPATSTEPSVILSKSDSDKSSSQVPPILQETDKSKSNTKQNSVPPSQTKSETSWESPKQIKKKKKARRET

Test system: HCoV-OC43 gRNA and sgRNA
Type: binding
Settings: for target (unweighted spectral count): OC43 Probe II, infected cells; for target (unweighted spectral count) / target (unweighted spectral count, OC43 Probe II capture): tested against no-probe control; for target (unweighted spectral count, OC43 Probe II capture): FDR<10%

| Molecule | target (unweighted spectral count) (12 hpi (type n_12_v)) | target (unweighted spectral count) (24 hpi (type n_24_v)) | target (unweighted spectral count, OC43 Probe II capture) (24 hpi, type n_24_v) | also measured |
| --- | --- | --- | --- | --- |
| B1 | 7 | 8 |  |  |
| B2 | 7 | 6 |  |  |
| B3 | 5 | 7 |  |  |
| B4 |  |  | 7 |  |
| B5 |  | 53 |  |  |
| B6 |  | 10 |  |  |
| B7 |  |  | 49 |  |
| B8 | 14 |  |  |  |
| B9 |  |  | 5 | target (unweighted spectral count, OC43 Probe II capture) (36 hpi, type n_36_v): 6; target (unweighted spectral count, OC43 Probe II) (type n_48_v, 48 hpi, OC43 Probe II capture on infected cells): 6; background (unweighted spectral count, no-probe control) (type n_48_v, 48 hpi, no-probe control on infected cells): 1 |
